This is an account of results in PMC9156751, “Dynamic arrest and aging of biomolecular condensates are modulated by low-complexity domains, RNA and biochemical activity” (Nature Communications, 2022).

This series concerns the molecule itself. Briefly: dynamic light scattering; 5 µM Dhh1 with an excess of 5 mM ATP/MgCl2, no RNA; reference buffer 90 mM KCl, 30 mM HEPES-KOH pH 7.4, 2 mM MgCl2; Zetasizer Nano ZS, 173° backscattering; combined with microscopy.

B1: mCherry-tagged Dhh1^48–425 (domain or fragment, yeast, UniProt P39517 48-425, looked up)
chain: FEDFYLKRELLMGIFEAGFEKPSPIQEEAIPVAITGRDILARAKNGTGKTAAFVIPTLEKVKPKLNKIQALIMVPTRELALQTSQVVRTLGKHCGISCMVTTGGTNLRDDILRLNETVHILVGTPGRVLDLASRKVADLSDCSLFIMDEADKMLSRDFKTIIEQILSFLPPTHQSLLFSATFPLTVKEFMVKHLHKPYEINLMEELTLKGITQYYAFVEERQKLHCLNTLFSKLQINQAIIFCNSTNRVELLAKKITDLGYSCYYSHARMKQQERNKVFHEFRQGKVRTLVCSDLLTRGIDIQAVNVVINFDFPKTAETYLHRIGRSGRFGHLGLAINLINWNDRFNLYKIEQELGTEIAAIPATIDKSLYVAENDET
notes: DEAD-box ATPase Dhh1 of yeast, residues 48-425: the two RecA domains without the N- and C-terminal low-complexity domains; also called tail-less Dhh1^48–425; LCD-lacking variant; source: E. coli BL21-Gold (DE3), purified (Ni2+ Chelating Sepharose, Superdex 75 SEC)
Take B1: the binding result is reported as “binds”.
